Source: US20240270857A1 (CHIA TAI TIANQING PHARMACEUTICAL GROUP, published 2024)
Read-outs that look alike come from different tables or passages of the source.

T1: human IL-36R overexpressed on 293T-hIL36R-NFκB cells (human, UniProt Q9HB29 20-575)
T1 sequence: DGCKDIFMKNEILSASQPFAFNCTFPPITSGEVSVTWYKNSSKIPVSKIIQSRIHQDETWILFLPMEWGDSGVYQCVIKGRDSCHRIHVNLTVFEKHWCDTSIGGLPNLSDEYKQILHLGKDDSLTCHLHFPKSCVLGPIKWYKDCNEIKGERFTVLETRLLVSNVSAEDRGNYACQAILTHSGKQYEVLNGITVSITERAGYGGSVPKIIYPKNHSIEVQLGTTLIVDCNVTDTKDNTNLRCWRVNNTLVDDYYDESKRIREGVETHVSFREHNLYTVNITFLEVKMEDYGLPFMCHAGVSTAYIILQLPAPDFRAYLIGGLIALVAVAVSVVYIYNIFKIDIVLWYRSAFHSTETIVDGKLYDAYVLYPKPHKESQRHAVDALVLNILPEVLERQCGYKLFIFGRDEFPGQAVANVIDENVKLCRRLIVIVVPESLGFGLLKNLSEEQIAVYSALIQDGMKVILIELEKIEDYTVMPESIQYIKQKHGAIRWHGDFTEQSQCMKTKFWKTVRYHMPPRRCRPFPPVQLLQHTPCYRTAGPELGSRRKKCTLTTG

T2: cynomolgus IL-36R overexpressed on 293T-CynoIL36R-NFκB cells (cynomolgus monkey)
T2 chain: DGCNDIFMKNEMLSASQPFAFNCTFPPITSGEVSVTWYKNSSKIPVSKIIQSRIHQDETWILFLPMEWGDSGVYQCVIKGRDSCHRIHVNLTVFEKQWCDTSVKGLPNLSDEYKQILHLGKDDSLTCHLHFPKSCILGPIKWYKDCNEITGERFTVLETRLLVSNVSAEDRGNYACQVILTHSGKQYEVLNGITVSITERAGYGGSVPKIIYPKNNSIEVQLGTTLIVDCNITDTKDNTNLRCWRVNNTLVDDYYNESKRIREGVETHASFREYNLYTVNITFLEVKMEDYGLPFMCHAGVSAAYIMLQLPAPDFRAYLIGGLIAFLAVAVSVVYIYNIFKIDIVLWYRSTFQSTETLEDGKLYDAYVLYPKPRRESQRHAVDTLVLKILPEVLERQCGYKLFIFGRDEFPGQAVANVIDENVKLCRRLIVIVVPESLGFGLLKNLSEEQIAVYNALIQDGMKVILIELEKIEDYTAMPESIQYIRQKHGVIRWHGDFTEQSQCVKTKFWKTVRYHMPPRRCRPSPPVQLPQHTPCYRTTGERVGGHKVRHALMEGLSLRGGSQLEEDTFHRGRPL

T3: IL-36R naturally expressed on OVCAR8 cells and on normal human epidermal keratinocytes (NHK cells) (human, UniProt Q9HB29 20-575)
T3 sequence (looked up): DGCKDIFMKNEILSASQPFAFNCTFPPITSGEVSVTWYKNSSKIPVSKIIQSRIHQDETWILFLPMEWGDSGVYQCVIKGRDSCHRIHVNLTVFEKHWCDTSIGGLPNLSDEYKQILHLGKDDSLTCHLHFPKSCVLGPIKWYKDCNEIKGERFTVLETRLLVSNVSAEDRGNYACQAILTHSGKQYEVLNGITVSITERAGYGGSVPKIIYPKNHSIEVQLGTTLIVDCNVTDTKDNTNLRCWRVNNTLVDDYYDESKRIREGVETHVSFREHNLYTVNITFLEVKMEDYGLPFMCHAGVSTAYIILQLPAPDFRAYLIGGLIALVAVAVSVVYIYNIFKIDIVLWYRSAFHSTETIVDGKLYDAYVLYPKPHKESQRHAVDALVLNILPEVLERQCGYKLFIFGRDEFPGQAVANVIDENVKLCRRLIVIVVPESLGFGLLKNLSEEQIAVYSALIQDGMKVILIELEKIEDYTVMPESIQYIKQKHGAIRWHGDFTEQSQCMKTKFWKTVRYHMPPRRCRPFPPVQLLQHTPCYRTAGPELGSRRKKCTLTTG

T4: Human IL-1Rrp2/IL-1R6 protein, His Tag (ACROBiosystems, IL2-H52H6) (human, UniProt Q9HB29 20-335)
T4 construct: Bought protein; the soluble protein is likely only the extracellular part; also called hIL-36R; human IL36R antigen; not shown: His tag
T4 sequence: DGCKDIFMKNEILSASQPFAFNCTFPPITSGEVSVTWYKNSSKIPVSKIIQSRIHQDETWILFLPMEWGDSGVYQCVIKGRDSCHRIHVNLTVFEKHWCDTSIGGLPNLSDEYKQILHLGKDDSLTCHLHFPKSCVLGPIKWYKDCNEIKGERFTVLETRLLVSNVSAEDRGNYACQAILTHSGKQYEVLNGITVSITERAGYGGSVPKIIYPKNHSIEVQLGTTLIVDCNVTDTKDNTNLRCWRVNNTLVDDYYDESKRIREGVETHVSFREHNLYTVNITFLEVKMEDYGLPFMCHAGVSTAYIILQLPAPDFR


How the values were obtained:
[1] = molecular target: T1, human IL-36R overexpressed on …; experiment: cell-based or functional assay
[2] = molecular target: T1, human IL-36R overexpressed on …; experiment: cell-based or functional assay; remark: listed apart in the source
[3] = molecular target: T1, human IL-36R overexpressed on …; experiment: cell-based or functional assay; remark: listed apart in the source
[4] = molecular target: T2, cynomolgus IL-36R overexpressed on …; experiment: cell-based or functional assay
[5] = molecular target: T2, cynomolgus IL-36R overexpressed on …; experiment: cell-based or functional assay
[6] = molecular target: T3, IL-36R naturally expressed on OVCAR8 …; experiment: cell-based or functional assay
[7] = molecular target: T3, IL-36R naturally expressed on OVCAR8 …; experiment: cell-based or functional assay; remark: listed apart in the source
[8] = molecular target: T3, IL-36R naturally expressed on OVCAR8 …; experiment: cell-based or functional assay; remark: listed apart in the source
[9] = molecular target: T4, Human IL-1Rrp2/IL-1R6 protein, His Tag …; experiment: BLI (ForteBio Octet), antibody on ProA sensor, 1:1 model
Experimental: The affinity of anti-IL-36R antibodies to CynoIL36R-ECD mFc and human IL-1Rrp2/IL-IR6 protein, His Tag (ACROBiosystems, IL2-H52H6) was measured by a ForteBio molecular interaction instrument. […] And then the biosensor was used to bind CynoIL36R-ECD mFc or human IL-1Rrp2/IL-1R6 protein, His Tag which was diluted by a gradient (the initial concentration was 200 nM, 2-fold gradient dilution), the response signals were detected in real time using a Fortebio molecular interaction instrument (SARTORIUS, octet red 96e), and association and dissociation curves were obtained. After the completion of dissociation in each cycle, the biosensor was regenerated for the next capture; the procedure was repeated until the affinity of the different anti-IL-36R antibodies for IL-36R was determined. The resulting data were analyzed by Fortebio Data Analysis 11.0 software in a 1:1 (Langmuir) binding model to determine kₐ (kₒₙ) and kd (koff) values, and the dissociation constant KD was calculated by KD=kd/kₐ. The detection method essentially followed the manufacturer's recommendations, and more information could be found at www.fortebio.com.

[10] = molecular target: T1, human IL-36R overexpressed on …; experiment: FACS on 293T-hIL36R-NFκB cells, ratio of MFI to background MFI
Experimental: After the cells was washed with PBS, the cells were resuspended with 100 μL of PBS and then the fluorescence signal was detected using a flow cytometer (BD, Accuri C6). […] The ratio was the ratio of mean fluorescence intensity (MFI) of the experimental group/the background MFI, and the resulting data were analyzed using GraphPad Prism.

Row | Binder | IC50; NFκB-luciferase reporter in 293T-hIL36R-NFκB cells stimulated with hIL36α, inhibition rate % [1] | IC50; NFκB-luciferase reporter in 293T-hIL36R-NFκB cells stimulated with hIL36γ, inhibition rate % [2] | IC50; NFκB-luciferase reporter in 293T-hIL36R-NFκB cells stimulated with hIL36γ, inhibition rate % [3] | IC50; NFκB-luciferase reporter in 293T-CynoIL36R-NFκB cells stimulated with hIL36β, inhibition rate % [4] | IC50; NFκB-luciferase reporter in 293T-CynoIL36R-NFκB cells stimulated with hIL36γ, inhibition rate % [5] | IC50; IL-8 production of OVCAR8 cells stimulated with hIL36α, inhibition rate % [6] | IC50; IL-8 production of OVCAR8 cells stimulated with hIL36β, inhibition rate % [7] | IC50; IL-8 production of OVCAR8 cells stimulated with hIL36γ, inhibition rate % [8] | Kd [9] | koff [9] | kon [9] | EC50 [10]
1 | BI655130 (antibody, human IgG1, kappa, L234A L235A, also called Spesolimab) heavy: not shown light: QIVLTQSPGTLSLSPGERATMTCTASSSVSSSYFHWYQQKPGQAPRLWIYRTSRLASGVPDRFSGSGSGTDFTLTISRLEPEDAATYYCHQFHRSPLTFGAGTKLEIKRTVAAPSVFIFPPSDEQLKSGTASVVCLLNNFYPREAKVQWKVDNALQSGNSQESVTEQDSKDSTYSLSSTLTLSKADYEKHKVYACEVTHQGLSSPVTKSFNRGEC | 6.09 nM | 4.74 nM | ~13.2 nM | 56.3 nM | 11.8 nM | 0.0927 nM | 0.0755 nM | 0.0405 nM | 0.22 nM | 1.29e-05 s⁻¹ | 58600 M⁻¹ s⁻¹ | 7.02 nM
2 | chimeric 84C4 antibody (antibody, human IgG4 S228P, kappa, Mouse variable regions on human IgG4 / kappa; also called xi84C4) heavy: not shown light: DILMTQSPSSLSASLGERVSLTCRASQDIGNALNWLQQAPDGTIKRLIYATSSLDPGVPKRFSGSRSGSDYSLTISSLASEDFVYYYCLQYASSPYTFGGGTKLEIKRTVAAPSVFIFPPSDEQLKSGTASVVCLLNNFYPREAKVQWKVDNALQSGNSQESVTEQDSKDSTYSLSSTLTLSKADYEKHKVYACEVTHQGLSSPVTKSFNRGEC | 3.25 nM | – | ~13.2 nM | – | – | 0.0181 nM | – | – | 0.66 nM | 7e-05 s⁻¹ | 106000 M⁻¹ s⁻¹ | –
3 | chimeric 72C1 antibody (antibody, human IgG4 S228P, kappa, Mouse variable regions on human IgG4 / kappa; also called xi72C1) heavy: not shown light: EILLTQSPAIMSATLGEKVTMSCRASSNVRYMYWYQLKSGASPKLWIYLTSNLASGVPARFSGSGSGTSYSLTISSVEAEDAATYFCQQFTTSPYTFGGGTKLEIKRTVAAPSVFIFPPSDEQLKSGTASVVCLLNNFYPREAKVQWKVDNALQSGNSQESVTEQDSKDSTYSLSSTLTLSKADYEKHKVYACEVTHQGLSSPVTKSFNRGEC | – | 10.5 nM | – | 3.6 nM | 2.38 nM | – | 0.116 nM | 0.0555 nM | – | – | – | 6.47 nM
